Measurements as given in patent publication US20160046725A1 (PIERRE FABRE MEDICAMENT, published 2016).
Positions count from the first letter of the chain named.

T1: human Axl receptor on human tumor cells (human, UniProt P30530 26-894)
T1 sequence: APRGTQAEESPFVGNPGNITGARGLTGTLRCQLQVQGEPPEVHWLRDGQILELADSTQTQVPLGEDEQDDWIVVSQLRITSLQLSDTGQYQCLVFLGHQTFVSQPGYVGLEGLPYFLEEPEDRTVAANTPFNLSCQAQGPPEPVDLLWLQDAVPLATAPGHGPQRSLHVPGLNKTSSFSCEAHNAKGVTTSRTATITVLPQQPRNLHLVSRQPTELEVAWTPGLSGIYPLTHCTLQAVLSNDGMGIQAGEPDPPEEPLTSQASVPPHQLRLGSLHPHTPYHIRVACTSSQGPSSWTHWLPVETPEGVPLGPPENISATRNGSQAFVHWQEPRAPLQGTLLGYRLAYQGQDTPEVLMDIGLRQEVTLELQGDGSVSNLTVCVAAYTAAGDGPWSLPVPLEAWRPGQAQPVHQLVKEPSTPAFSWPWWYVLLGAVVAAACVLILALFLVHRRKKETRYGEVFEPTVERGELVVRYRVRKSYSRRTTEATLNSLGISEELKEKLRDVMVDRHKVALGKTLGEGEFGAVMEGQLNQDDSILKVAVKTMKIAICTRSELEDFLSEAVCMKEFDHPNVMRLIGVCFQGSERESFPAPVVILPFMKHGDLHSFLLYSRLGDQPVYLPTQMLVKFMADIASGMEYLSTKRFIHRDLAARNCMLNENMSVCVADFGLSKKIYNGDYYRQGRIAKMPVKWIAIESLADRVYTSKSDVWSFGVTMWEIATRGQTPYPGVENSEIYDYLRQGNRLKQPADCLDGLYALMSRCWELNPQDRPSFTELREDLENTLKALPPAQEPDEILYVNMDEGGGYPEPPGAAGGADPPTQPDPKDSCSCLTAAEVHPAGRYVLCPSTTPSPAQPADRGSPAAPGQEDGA

T2: recombinant human Mer-Fc protein (R and D Systems, cat N° 891-MR) (human, UniProt Q12866 26-499, limits assumed)
T2 construct: Bought construct; also called rhMer-Fc; rh-Mer-Fc; not shown: Fc portion of the bought fusion
T2 sequence (looked up): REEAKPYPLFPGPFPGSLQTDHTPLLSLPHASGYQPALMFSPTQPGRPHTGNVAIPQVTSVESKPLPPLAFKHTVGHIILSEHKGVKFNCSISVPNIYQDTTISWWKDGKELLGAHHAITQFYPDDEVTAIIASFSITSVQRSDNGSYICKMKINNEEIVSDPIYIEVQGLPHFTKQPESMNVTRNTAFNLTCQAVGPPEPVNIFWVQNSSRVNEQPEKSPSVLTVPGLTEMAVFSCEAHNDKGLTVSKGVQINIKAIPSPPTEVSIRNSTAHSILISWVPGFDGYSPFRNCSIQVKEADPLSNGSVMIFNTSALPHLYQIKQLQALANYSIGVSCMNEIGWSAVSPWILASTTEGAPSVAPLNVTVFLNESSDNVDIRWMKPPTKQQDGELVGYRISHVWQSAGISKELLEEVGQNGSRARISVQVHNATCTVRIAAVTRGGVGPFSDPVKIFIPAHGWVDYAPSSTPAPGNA

T3: recombinant human Dtk-Fc protein (R and D Systems, cat N° 859-DK) (human, UniProt Q06418 41-428)
T3 construct: Bought construct; also called rhDtk-Fc; rhDtk; not shown: Fc portion of the bought fusion
T3 sequence (looked up): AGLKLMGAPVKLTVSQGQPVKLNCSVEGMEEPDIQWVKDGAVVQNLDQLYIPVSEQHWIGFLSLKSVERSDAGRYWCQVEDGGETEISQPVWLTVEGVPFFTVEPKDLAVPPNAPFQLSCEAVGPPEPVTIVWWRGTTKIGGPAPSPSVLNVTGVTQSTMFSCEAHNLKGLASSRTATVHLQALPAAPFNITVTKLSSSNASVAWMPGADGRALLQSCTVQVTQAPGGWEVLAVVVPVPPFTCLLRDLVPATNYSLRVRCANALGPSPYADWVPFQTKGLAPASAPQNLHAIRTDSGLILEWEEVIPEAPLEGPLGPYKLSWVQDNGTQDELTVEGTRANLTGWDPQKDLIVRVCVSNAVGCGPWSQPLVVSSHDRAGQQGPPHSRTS

B1: 110D7 anti-Axl monoclonal antibody (antibody, V domains shown)
VH: EVKLVESGGGLVQPGGSLKLSCATSGFTFSDYYMYWVRQTPEKRLEWVAYISNGGGSTYYPDTVKGRFTMSRDNAKNTLYLQMSRLKSEDTAMYYCARLSFYAMDYWGQGTSVTVSS
VL: DIVMTQSHKFMSTSVGDRVSITCKASQDVTTAVAWYQQKPGQSPKLLIYWASTRHTGVPDRFTGSGSGTDYTLTISSVQAEDLALYYCQQHYRIPFTFGSGTKLEIK
notes: Murine monoclonal antibody purified from a hybridoma; a mIgG1 isotype control (9G4) is used beside it; also called m110D7; monoclonal antibody 110D7 derived from the hybridoma I-3959
B2: 1003A2 anti-Axl monoclonal antibody (antibody, V domains shown)
VH: EVKLVESGGGLVQPGGSLKLSCAASGFTFNSYSMSWVRQTPEKRLEWVAYISNGGGRTYYPDTIKGRFTLSRDNDRNTLYLQMSSLKSEDTAMYYCARGTTESYYALDYWGQGTSVTVSS
VL: B1 VL with V15L, V19I, T30I, T72N, Y92F, R93S, I94T, F96L, S100A, I106L
notes: Murine monoclonal antibody purified from a hybridoma; a mIgG1 isotype control (9G4) is used beside it; also called monoclonal antibody 1003A2 derived from the hybridoma I-4499
B3: 1024G11 anti-Axl monoclonal antibody (antibody, V domains shown)
VH: B2 VH with K19N, N30S, Y50F, I64V, L70F, D75A, K87N, Y95F, L107M
VL: B1 VL with T30I, Y87F, Y92L, R93S, I94T, F96L, S100A, I106L
notes: Murine monoclonal antibody purified from a hybridoma; a mIgG1 isotype control (9G4) is used beside it; also called monoclonal antibody 1024G11 derived from the hybridoma I-4501

Biological target: T1, human Axl receptor on human tumor cells
Experiment: cell-based or functional assay

Row | Binder | % remaining Axl | Δ (MFI No Ab 24 h - MFI Ab 24 h)
1 | B1 | 29.8% | 588 MFI
2 | B2 | 35% | 505 MFI
3 | B3 | 45.5% | 478 MFI

Biological target: T2, recombinant human Mer-Fc protein (R and …)
Experiment: ELISA on coated protein
Method: (§1) Briefly, the recombinant human Axl-Fc (R and D systems, cat N° 154AL/CF), rhDtk (R and D Systems, cat N° 859-DK) or rh-Mer-Fc (R and D Systems, cat N° 891-MR) proteins were coated overnight at 4° C. to Immulon II 96-well plates and, after a 1 h blocking step with a 0.5% gelatine solution, 110D7, 1003A2, 1024G11 purified antibodies were added, respectively, for an additional 1 h at 37° C. at starting concentration of 5 μg/ml (3.33 10⁻⁸M). Then ½ serial dilutions were done over 12 columns. Then plates were washed and a goat anti-mouse (Jackson) specific IgG-HRP was added for 1 h at 37° C. Reaction development was performed using the TMB substrate solution. The commercial anti-Axl Mab 154 antibody is also used in parallel (data not shown). Coating controls are performed in presence of a goat anti-human IgG Fc polyclonal serum labelled with HRP (Jackson, ref 109-035-098) and/or in presence of a HRP-coupled anti-Histidine antibody (R and D Systems, ref: MAB050H). No non specific binding is observed in absence of primary antibody (diluant). Results for the 110D7 are represented in FIGS. 2A, 2B and 2C, respectively. Results for the 1003A2 are represented in FIGS. 2D, 2E and 2F, respectively. Results for the 1024G11 are represented in FIGS. 2G, 2H and 2I, respectively.

Row | Binder | binding result
4 | B1 | no binding
5 | B2 | no binding
6 | B3 | no binding

Biological target: T3, recombinant human Dtk-Fc protein (R and …)
Experiment: ELISA on coated protein
Method: as §1

Row | Binder | binding result
7 | B1 | no binding
8 | B2 | no binding
9 | B3 | no binding

Biological target: T1, human Axl receptor on human tumor cells
Experiment: cell-based or functional assay
Remark: another data set of the same source

Row | Binder | Axl down-regulation at 4 h (western blot, SN12C) | Axl down-regulation at 24 h (western blot, SN12C) | maximal cytotoxic effect on SN12C cells (Mab-Zap assay)
10 | B1 | 50% | 84% | ~49%
11 | B2 | 66% | 89% | ~37%
12 | B3 | 68% | 85% | ~40%
